{
  "source": "the nanobody polyreactivity screen of Harvey et al. (2022)",
  "data": [
    {"assay": "yeast display, Sf9 membrane polyspecificity reagent, FACS + sequencing; frameworks hold sequencing errors", "method_in_brief": "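Genes from sorted yeast were amplified by colony PCR, read by MiSeq 2 × 250 sequencing and filtered on CDR length. These cells carried a synthetic nanobody library in Saccharomyces cerevisiae BJ5465 and were sorted by FACS into low and high (top ~1%) gates on anti-HA and streptavidin fluorescence. Polyreactivity is labelled according to the gate of origin.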", "values": [
      {"sequence": "QVQLVESGGGLVQAGGSLRLSCAASGANFGRNDMGWYRQAPGKERELVAAISWSGGRTYYADSVKGRFTISRDNAKNTVYLQMISLKPEDTAVYYCNRDYYVGRYDYWGQGTQVTVSS", "polyreactivity (PSR sort gate)": "high polyreactivity"},
      {"sequence": "QVQLVESGGGLVQAGGSLRLSCAASGATFWRYAMGWYRQAPGKERELVAAISTSGGSTRYADSVKGRFTISRDNAKNTVYLQMNSLKPEDTAVYYCNAQHLARMDYWGQGTQVTVSS", "polyreactivity (PSR sort gate)": "high polyreactivity"},
      {"sequence": "QVQLVESGGGLVQAGGSLRLSCAASGCIFTYNTMGWYRQAPGKERELVAAISGRGGRTYYADSVKGRFTISRDNAKNTVYLQMNSLKPEDTAVYYCNARKYSQKIYGNYNYWGKGTQVTVSS", "polyreactivity (PSR sort gate)": "high polyreactivity"},
      {"sequence": "QVQLVESGGGLVQAGGSLRLSCAASGCTRWYAMGWYRQAPGKERELVAAINGRGVSTYYAVSVKGRFRISRDNAKHTVYLQMNSLKQADTAVYYCAAYAYYDRYRRYDYWGQGTQVTVST", "polyreactivity (PSR sort gate)": "low polyreactivity"},
      {"sequence": "QVQLVESGGGLVQAGGSLRLSCAASGDIFDAYAMGWYRQAPGKERELVAAISRSGGSTYYADSVKGRFTISRDNAKNTVYLQMNSLKPEDTAVYYCATRFSRRYVRYDYWGQGTQVTVSS", "polyreactivity (PSR sort gate)": "high polyreactivity"},
      {"sequence": "QVQLVESGGGLVQAGGSLRLSCAASGFFFAGYAMGWYRQAPGKERELVAAISSGGGSTYYADSVKGRFTISRDNAKNTVYLQMNSLKPEDTAVYYCAARRLYPPGYYYWGQGTQVTVSS", "polyreactivity (PSR sort gate)": "high polyreactivity"},
      {"sequence": "QVQLVESGGGLVQAGGSLRLSCAASGFFFGFYAMGWYRQAPGKERELVASISGRGGRTSYADSVKGRFTISRDNAKITVYLQMNSLKPEDTAVYYCNKAGYGVSRKYDYWGQGTQVTVSS", "polyreactivity (PSR sort gate)": "high polyreactivity"},
      {"sequence": "QVQLVESGGGLVQAGGSLRLSCAASGFICFDYDMGWYRQAPGKERELVAAINWTGGSTDYADSVKGRFTISRDNAKNTVYLQMNSLKPEDTAVYYCAAEGQDGRFYWGQGTQVTVSS", "polyreactivity (PSR sort gate)": "low polyreactivity"},
      {"sequence": "QVQLVESGGGLVQAGGSLRLSCAASGFIDAYTMGWYRQAPGKERELVAAMTWSGGRTYYADSVKGRFTISRDNAKNTVYLQLYSLKPEDTAVYYCAKDVTPYSPDDDYWGQGTQVTVSS", "polyreactivity (PSR sort gate)": "low polyreactivity"},
      {"sequence": "QVQLVESGGGLVQAGGSLRLSCAASGFIFACYAMAWYRQAPGKERELVATISSSGARTYYADSVKGRFTISRDNAKNTVYLQMNSLKPEDTAVYYCSAAGRYRPVSPYSGYNYWGQGTQVTVSS", "polyreactivity (PSR sort gate)": "high polyreactivity"},
      {"sequence": "QVQLVESGGGLVQAGGSLRLSCAASGFIFAEYAMGWYRQAPGKERELVVAIDVGGGSTYYADSVKGRFTISRDNAKNTVYLQMNSLKPEDTAVYYCAATQYGYWVPYQGFDYWGQGTQVTVSS", "polyreactivity (PSR sort gate)": "low polyreactivity"},
      {"sequence": "QVQLVESGGGLVQAGGSLRLSCAASGFIFAFYDKGWYRQAPGKERELVAAISWGGSTYYADSVKGRVTISRDNAKNTVYLQMNSLKPEDTAVYYCAARLSRSYLYGYWGQGTQVTVSS", "polyreactivity (PSR sort gate)": "high polyreactivity"},
      {"sequence": "QVQLVESGGGLVQAGGSLRLSCAASGFIFAINAMGWYRQAPGKERELVAAITSSGGSTYYADSVKGRFTISRDNAKNTVYLQMNSLKPEDTAVYYCAAPQGNPSQDWEDYWGQGTQVTVSS", "polyreactivity (PSR sort gate)": "low polyreactivity"},
      {"sequence": "QVQLVESGGGLVQAGGSLRLSCAASGFIFAPYAMGWYRQAPGKERELVAAISWSGGSTYYADSVKGRFTISRDNAKNTVYLQMNSLKPEDTAVYYCAAAGYITRYDRYDYWGQGTQVTVSS", "polyreactivity (PSR sort gate)": "high polyreactivity"},
      {"sequence": "QVQLVESGGGLVQAGGSLRLSCAASGFIFAQNAMGWSRQAPGTERELVAAITSSGVSTYYADSVKGRFTISRDNAKNTVYLQMNSLKPEDTAVYYCNRTPRYTIRYGYWGQGTQVTVSS", "polyreactivity (PSR sort gate)": "high polyreactivity"},
      {"sequence": "QVQLVESGGGLVQAGGSLRLSCAASGFIFARNAMGWYRQAPGKERELVATITRSSGSTYYADSVKGRFTISRDNAKNTVYLQMNSLKPEDTAVYYCNARLYGTFWGQGTQVTVSS", "polyreactivity (PSR sort gate)": "high polyreactivity"},
      {"sequence": "QVQLVESGGGLVQAGGSLRLSCAASGFIFARNTMGWYRQAPGKERELVAAITKSGGSTYYADSVKGRFTISRDNAKNTVYLQMNSPKPEDTSVYYCAARSWWLRGIYGFDSWGQGTQVTVSS", "polyreactivity (PSR sort gate)": "low polyreactivity"},
      {"sequence": "QVQLVESGGGLVQAGGSLRLSCAASGFIFARNVMGWSRQAPGKERELVAAISWSGGSTYYADSVKGRFTISRDNAKNTVYLQMNSLKPEDTAVYYCNKQFPFSKYYIMGYWGQGTQVTVSS", "polyreactivity (PSR sort gate)": "high polyreactivity"},
      {"sequence": "QVQLVESGGGLVQAGGSLRLSCAASGFIFARYAMGWYIQAPGKERELVAAITRRGGSTYYADSVKGRFTISRDNAKNTVYLQMNSLKPEDTAVYYCAAVTSTSWGSVSYRYGVGYDYWGQGTQVTVSS", "polyreactivity (PSR sort gate)": "high polyreactivity"},
      {"sequence": "QVQLVESGGGLVQAGGSLRLSCAASGFIFARYAMGWYREAPGKERELLAAITARGGSTYYADSVKGRFTISRDNAKNTVYLQMNSLKPEDTAVYYCADVSGYSTGGYRNRYNYWGQGTHVTVSS", "polyreactivity (PSR sort gate)": "high polyreactivity"},
      {"sequence": "QVQLVESGGGLVQAGGSLRLSCAASGFIFARYAMGWYRQAPGKERELVASITGRGTSTRYADSVKGRFTISRDNAKNTVYLQMNSLKPEDTAVFYCNAARLSYSWVPSEMDYWGQGTQVTVSS", "polyreactivity (PSR sort gate)": "high polyreactivity"},
      {"sequence": "QVQLVESGGGLVQAGGSLRLSCAASGFIFASNAMGWYRQAPGKERELVASISRSGGNTYYADSVKGRFTISRDNAKNTVYLQMNSLKPEDTAVYYCAAEYIFHYYDIFDYWGQGTQVTVSS", "polyreactivity (PSR sort gate)": "high polyreactivity"},
      {"sequence": "QVQLVESGGGLVQAGGSLRLSCAASGFIFASYAMGWYRQAPGKERELVAAITQSGGITYYADSVKGRFTISRDNAKNTVYLQMTSLKPEDTAVYYCNTPLLKRTTRGRERNYWGQGTQVTVSS", "polyreactivity (PSR sort gate)": "low polyreactivity"},
      {"sequence": "QVQLVESGGGLVQAGGSLRLSCAASGFIFASYTMGRTRQAPGKERELVAAISRAGSTYYADSVKGRFTISRDNAKNTVYLQMNSLKPEDTAVYYCNAVSWRTSRYDYWGQGTQVTVSS", "polyreactivity (PSR sort gate)": "high polyreactivity"},
      {"sequence": "QVQLVESGGGLVQAGGSLRLSCAASGFIFAVYGMGWYTQAPGKQRELVAAISTGDSTKYADSVKGRFTISRDNAKNTVYLQMNSLNPEDTAVYYCAADGPYEGYDYWGQGTQVTVSS", "polyreactivity (PSR sort gate)": "high polyreactivity"},
      {"sequence": "QVQLVESGGGLVQAGGSLRLSCAASGFIFAWSAMGWYRQAPGKERELVAAISYSGGSTFYADSVKGRFTISRDNAKNTVYLQMNSLKPEDTAVYYCARYYRALGTARNDYWGQGTQVTVSS", "polyreactivity (PSR sort gate)": "low polyreactivity"},
      {"sequence": "QVQLVESGGGLVQAGGSLRLSCAASGFIFAWYAMGWSRQAPGKERELVADISWGGGSTYYADSVKGRFTISRDNAKNTVYLQMNSLKPEDTAVYYCAATRPATYAAYDYWGQGTQVTVSS", "polyreactivity (PSR sort gate)": "high polyreactivity"},
      {"sequence": "QVQLVESGGGLVQAGGSLRLSCAASGFIFAYNAMGWYRQAPGKERELVASIRTRGGSTYYADSVKGRFTISRDNAKNTVYLQMNSLKPEDTAVYYCAARPFPRRYDYWGQGTQVTVSS", "polyreactivity (PSR sort gate)": "low polyreactivity"},
      {"sequence": "QVQLVESGGGLVQAGGSLRLSCAASGFIFAYYAMGWYRQATGKERELVAGITRGSSTYYADSVKGRFTISRDNAKNTVYLQMNSLKPEDTAVYYCARGYTWFYAVWPEYDYWGEGTQVTVSS", "polyreactivity (PSR sort gate)": "high polyreactivity"},
      {"sequence": "QVQLVESGGGLVQAGGSLRLSCAASGFIFDAYAMGWYRQAPGKERELVAAITRGNTYYADSVTGRFTISRDNAKNTVYLQMNSLKPEDTAVYYCAARYWQSYRSQVTHSSTLDYWGQGTQVTVSS", "polyreactivity (PSR sort gate)": "low polyreactivity"},
      {"sequence": "QVQLVESGGGLVQAGGSLRLSCAASGFIFDDNAMGWYRQAPGKERELVAAITSGGGSTYYADSVKGRFTISRDNAKNTVYLQMNSLKPEDTAVYYCARDQTWSYQPWYYLSYPQYEYWGQGTQVTVSS", "polyreactivity (PSR sort gate)": "low polyreactivity"},
      {"sequence": "QVQLVESGGGLVQAGGSLRLSCAASGFIFDDYAMGWYRQAPGKERELVAAISASGGRTFYADSVKGRFTISRDNAKNTVYLQMNSLKPEDTAVYYCATIVDTYVFRYYYWGQGTQVTVSS", "polyreactivity (PSR sort gate)": "high polyreactivity"},
      {"sequence": "QVQLVESGGGLVQAGGSLRLSCAASGFIFDFYAMGWYRQAPGKERELVATINSSGTTNYADSVKGRFTISRDNAKNTVYLEMISLKPEDTAVYDCATVEYLGHYTYDYWGQGTQVTVSS", "polyreactivity (PSR sort gate)": "low polyreactivity"},
      {"sequence": "QVQLVESGGGLVQAGGSLRLSCAASGFIFDIYAMGWYRQAPGKERELVASINWSGGDSTSYADSVKGRFTISRDNAKNTVYLQMNSLKPEDTAVYYCNAEYWSYAGGYPDEYDYWGQGTQVTVSS", "polyreactivity (PSR sort gate)": "low polyreactivity"},
      {"sequence": "QVQLVESGGGLVQAGGSLRLSCAASGFIFDIYAMGWYRQAPGKERELVASINWSGGDSTSYADSVKGRFTISRVNAKNTVSLQMNILKPEDTAVYYCIAEYWYYAGGYPDEYDYWGQGPQVTVSS", "polyreactivity (PSR sort gate)": "low polyreactivity"},
      {"sequence": "QVQLVESGGGLVQAGGSLRLSCAASGFIFDQNAMGWYRQAPGKERELVAAISKRGGSTYYADSVKGRFTISRDNAKNTVYLQMNSLKPEDTAVYYCATRSWGPYYYGYNHWGQGTQETVSS", "polyreactivity (PSR sort gate)": "high polyreactivity"},
      {"sequence": "QVQLVESGGGLVQAGGSLRLSCAASGFIFDRYAMGWYRQAPGKERELVAVISKSGGRTYYADSVKGRFTISRDHAKNTVYLQMNSLKPEDTAVYYCAAYYKSTYVTGDYWGQGTQVTVSS", "polyreactivity (PSR sort gate)": "high polyreactivity"},
      {"sequence": "QVQLVESGGGLVQAGGSLRLSCAASGFIFDSYAMGWYRQAPGKERELVAAISYSGGNTYYADSVKGRFTISRDNAKNTVYLQMNSLKPEDTAVYYCAAEWSDSRWWRLWWYGEDDYWGQGTQVTVSS", "polyreactivity (PSR sort gate)": "high polyreactivity"},
      {"sequence": "QVQLVESGGGLVQAGGSLRLSCAASGFIFDTYVMGWYRQAPGKERELVAAISRTGGRTYYADSVKGRFTISRDNAKNTVYLQMNSLKPEDTAVYYCAAKVYYPYLFTSYDYWGQGTQVTVSS", "polyreactivity (PSR sort gate)": "high polyreactivity"},
      {"sequence": "QVQLVESGGGLVQAGGSLRLSCAASGFIFDWNAMGWYRQAPGKERELVAAITWGGDGTFYADSVKGRFTISRDNAKNTVYLQMNSLKPEDTAVYYCAADSDSSFWWYYSWGQGTQVTVSS", "polyreactivity (PSR sort gate)": "low polyreactivity"},
      {"sequence": "QVQLVESGGGLVQAGGSLRLSCAASGFIFDYYAMGWYRHAPGKERELVAAITSRGGSTYYADSVKGRFTISRDNAKNTVYLQMNSLKPEDTAVYYCAARRRSAEYNYWGQGTQVTVSS", "polyreactivity (PSR sort gate)": "high polyreactivity"},
      {"sequence": "QVQLVESGGGLVQAGGSLRLSCAASGFIFDYYAMGWYRQAPGKERELVAAISGSGTSTYYADSVKGRFTISRDNAKYTVYLQMNSLKPEDTAVYYCSAESDWWSDIGYYWGQGTQVTVSS", "polyreactivity (PSR sort gate)": "high polyreactivity"},
      {"sequence": "QVQLVESGGGLVQAGGSLRLSCAASGFIFDYYAMGWYRQAPGKERELVAGISRRGGSTYYADSVKGRFTISRDNAKNTVYLQMNSLKPEDTAVYYCNADAWRKVPHPGTGGRDYWGQGTQVTVSS", "polyreactivity (PSR sort gate)": "high polyreactivity"}
    ]}
  ]
}
